We go through 2 proteins from PMC3576024.

What all share (assay): DTNB colorimetric detection of released CoA, Michaelis-Menten fit
What all share (format): biochemical, Aedes aegypti
Holding throughout (details): apparent Km; 0.4 mM acetyl-CoA, 50 mM Tris-HCl, 1.0 mg/mL BSA, room temperature

Substrate in data set [1]: NC[C@H](O)c1ccc(O)c(O)c1
Substrate in data set [2]: NC[C@H](O)c1ccc(O)cc1
Substrate in data set [3]: NCCc1c[nH]c2ccc(O)cc12
Substrate in data set [4]: NCCc1c[nH]c2ccccc12
Substrate in data set [5]: NCCc1ccc(O)c(O)c1
Substrate in data set [6]: NCCc1ccc(O)cc1

B1: aaNAT2 (PaaNAT2) (Aedes aegypti) (protein)
chain: MLDSKLNNIRFETISSKYYDDVIEHLRQTFFADEPLNKAVNLTRPGQGHPLLEQHSLSTLKDNVSIMAISNDGDIAGVALNGILYGNTDIEKSREKLNEIQDESFKKIFKLLYEQNLKINLFKQFDVDKIFEIRILSVDSRFRGKGLAKKLIEKSEELALDRGFQVMKTDATGAFSQRVVSSLGFITKCEINYTDYLDENGEQIFVVDPPHEKLKIMCKVIN
As for B1, the Km (in general, the substrate concentration at which the rate is half of its maximum) in data set [1] turned out to be 420 ± 60 µM; in data set [2], 270 ± 40 µM; in data set [3], 230 ± 50 µM; in data set [4], 170 ± 40 µM; in data set [5] it was 130 ± 50 µM; in data set [6] it was 170 ± 30 µM. In addition, the catalytic constant (kcat) (commonly the number of substrate molecules converted per active site and unit of time at saturation) is 3.47 ± 0.192 s⁻¹ in data set [1]; 3.65 ± 0.175 s⁻¹ in data set [2]; 3.16 ± 0.198 s⁻¹ in data set [3]; 3.05 ± 0.197 s⁻¹ in data set [4]; 2.56 ± 0.25 s⁻¹ in data set [5]; 3.17 ± 0.183 s⁻¹ in data set [6]. The catalytic efficiency (kcat/Km) (commonly the second-order rate constant that governs catalysis at low substrate concentration) in data set [1] stood at 8270 M⁻¹ s⁻¹; in data set [2], 13500 M⁻¹ s⁻¹; in data set [3], 13800 M⁻¹ s⁻¹; in data set [4] it was 17900 M⁻¹ s⁻¹; in data set [5], 19700 M⁻¹ s⁻¹; in data set [6], 18600 M⁻¹ s⁻¹.

B2: aaNAT1 (PaaNAT1) (Aedes aegypti) (protein)
chain: MASKMSTVSSDAKGAIVKPSSTDDSTLPLDEVDTNISIELITEDDAEDVLKLLKKFFFKDEPLNTFVNLGECKELEKYSTKNLHEHCSFKAVNGRGEIVGVNINGLINRPKETDEPPAKLADGCEHPKFKKIMALMDYVDEHFNIFDLYPDVDRMLDVKIMSVDSRYRGLGIAGKLTDRTMQYVKDNNIKLVHVLCSSHFSARVMEKLDFEEVYKLDYSDYLVNGEQVFDPEKPHTAVRILTKRLA
As to B2, the Km in data set [1] worked out at 160 ± 40 µM; in data set [2] it was 140 ± 80 µM; in data set [3], 230 ± 60 µM; in data set [4] it was 160 ± 40 µM; in data set [5] it was 190 ± 70 µM; in data set [6], 170 ± 40 µM. Besides, the turnover number (kcat) in data set [1] came out at 7.76 ± 0.577 s⁻¹; in data set [2] it was 7.26 ± 1.12 s⁻¹; in data set [3], 7.54 ± 0.595 s⁻¹; in data set [4], 7.34 ± 0.528 s⁻¹; in data set [5], 7.3 ± 0.742 s⁻¹; in data set [6] it was 6.77 ± 0.413 s⁻¹. Further, the kcat/Km in data set [1] is 48500 M⁻¹ s⁻¹; in data set [2], 51900 M⁻¹ s⁻¹; in data set [3] it was 32800 M⁻¹ s⁻¹; in data set [4] it was 45900 M⁻¹ s⁻¹; in data set [5], 38400 M⁻¹ s⁻¹; in data set [6] it was 39800 M⁻¹ s⁻¹.
